B1: RSFP2G7抗体 (antibody, V domains shown)
VH: QVQLVQSGTEVRKPGSSVKVSCTASGGTFSIYDIFWVRQAPGQGLEWMGRIIPILDQIDYAQKFEGRVTITADKGRKTVYMELSSLRSDDTAVYYCARPPDTYDNIERWGPGTLVTVSS
VL: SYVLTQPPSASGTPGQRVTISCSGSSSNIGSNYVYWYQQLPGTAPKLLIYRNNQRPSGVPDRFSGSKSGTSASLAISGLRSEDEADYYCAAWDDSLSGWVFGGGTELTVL
B2: RSFP2D9抗体 (antibody, V domains shown)
VH: EVQLVESGGGLVQPGGSLRLSCAASGFTFSTYEMNWVRQAPGKGLEWISYISVSGATIYYADSVKGRFTISRDNAKSSVYLQMTSLRPEDTAIYYCARDNSLTDYGSGLYWGQGTTVTVSS
VL: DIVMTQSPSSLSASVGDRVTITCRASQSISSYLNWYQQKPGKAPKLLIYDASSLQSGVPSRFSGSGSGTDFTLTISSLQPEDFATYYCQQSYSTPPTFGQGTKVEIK
B3: RSFP2B6抗体 (antibody, V domains shown)
VH: QVQLVQSGGALAQPGRSLRLSCTTSGFTFGDYAVNWVRQAPGKGLEWVGIVRTEPYGGTTEYSASVKGRFIISRDDSKGIAYLQMNSLKTEDTGVYYCSQPILNVDVWGQGTTVTVSS
VL: NFMLTQPHSVSESPGKTVTISCTRSSGSFGSDYVQWYQQRPGSAPNTVIYENNQRPSGVPDRFSGSIDSSSNSASLTISGLKTEDEADYYCQSYDDNTPWVFGGGTELTVL

Chain of RSV-A2 F假病毒上的F蛋白 (参考序列Uniprot:P03420) (P03420 26-574, one chain of several): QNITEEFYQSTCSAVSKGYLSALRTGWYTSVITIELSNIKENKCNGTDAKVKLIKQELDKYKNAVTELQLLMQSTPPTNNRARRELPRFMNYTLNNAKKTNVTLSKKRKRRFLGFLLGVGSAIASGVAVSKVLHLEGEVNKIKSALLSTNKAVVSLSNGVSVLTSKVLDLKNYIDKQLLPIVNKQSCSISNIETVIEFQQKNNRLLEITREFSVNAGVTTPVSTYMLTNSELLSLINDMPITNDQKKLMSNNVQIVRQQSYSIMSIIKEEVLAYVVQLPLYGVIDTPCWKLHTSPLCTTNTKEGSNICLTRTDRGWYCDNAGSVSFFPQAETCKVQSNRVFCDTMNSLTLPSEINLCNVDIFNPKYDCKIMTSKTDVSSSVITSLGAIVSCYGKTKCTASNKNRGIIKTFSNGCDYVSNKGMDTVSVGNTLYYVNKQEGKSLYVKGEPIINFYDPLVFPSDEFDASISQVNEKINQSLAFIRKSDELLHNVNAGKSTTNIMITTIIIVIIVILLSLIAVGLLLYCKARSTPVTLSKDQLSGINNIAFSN

The first assay addresses RSV-A2 F假病毒上的F蛋白 (参考序列Uniprot:P03420) (RSV A2, UniProt P03420 26-574). As to the kind of experiment: cell-based or functional assay.
Consider B1, for which the “中和IC50 (RSV-A2假病毒, luciferase, 293T细胞)” value turned out to be 1.7 µg/mL.

As to B2, the “中和IC50 (RSV-A2假病毒, luciferase, 293T细胞)” value was 0.532 µg/mL.

Take B3: the “中和IC50 (RSV-A2假病毒, luciferase, 293T细胞)” value was 3.89 µg/mL.

The target of a further assay is RSV(strain A2)病毒的F蛋白 (RSV (strain A2), UniProt P03420 26-574). Nature of the assay: cell-based or functional assay.
Chain of RSV(strain A2)病毒的F蛋白 (P03420 26-574): as the sequence (P03420 26-574, one chain of several) above
For the molecule B1, the “中和IC50 (RSV strain A2活病毒, focus count, 293T细胞)” value is 0.734 µg/mL.

As to B2, the “中和IC50 (RSV strain A2活病毒, focus count, 293T细胞)” value amounted to 0.054 µg/mL.

Turning to B3, the “中和IC50 (RSV strain A2活病毒, focus count, 293T细胞)” value was 1 µg/mL.

Source of the values: CN118307667A (INST PATHOGEN BIOLOGY CAMS, dated 2024).
